Test results taken from the nanobody polyreactivity screen of Harvey et al. (2022).

Test: yeast display, Sf9 membrane polyspecificity reagent, FACS + sequencing; frameworks hold sequencing errors
How it was run: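 Nanobodies from a synthetic yeast display library (Saccharomyces cerevisiae BJ5465), induced 36–48 hours with galactose, were stained 1 hour at 4 °C with 10% biotinylated, detergent-solubilized Sf9 membrane reagent, enriched on streptavidin microbeads, then FACS-sorted. Anti-HA (expression) and streptavidin (reagent binding) fluorescence set low and high (top ~1%) gates. Polyreactivity labels come from the gate of origin. Genes were colony-PCR amplified, MiSeq 2 × 250 sequenced and filtered by CDR length.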

Sequence | polyreactivity (PSR sort gate)
QVQLVESGGGLVQAGGSLRLSCSASGRIFHRYTMGWYRQSPGKEREFVAAITTRAGSTYYADSVKGRFTISRDNAKYTVFLQMNSLKPEDTAVYYCNIRRHSMFGGTTTRYDFWGQGTQVTVSS | high polyreactivity
QVQLVESGGGLVQAGGSLRLSCSASGRIFSGYAMGWYRQAPGKERELVAAITSVGSTNYADSVKGRFTISRDNAKNTVYLQMNSLKTEDTAVYYCAARSQIYYRYRSYGYWGQGTQVTVSS | high polyreactivity
QVQLVESGGGLVQAGGSLRLSCSASGRIFVIYDMGWYRQAPGKEWEFVAAISWRTGSTYYADSVKGRFTISRDNAKNTVYLQMNSLKPEDTAVYYCAASIGLVHYDYWGQGTQVTVSS | low polyreactivity
QVQLVESGGGLVQAGGSLRLSCSASGRNFWFYAKGWYRQAPGKERELVAAISSGGSTNYADSVKGRFTISRDNAKNTVYLQMNSLKPEDTAVYYCAKVGNIPYGTRYYSNRYDYWGQGTLVTVSS | low polyreactivity
QVQLVESGGGLVQAGGSLRLSCSASGRTFGAYAMGWSRQAPGKERELVASISRSGGTTYYADSVKGRFTISRDNAKNTVYLQMNSLKPEDTAVYYCAAQYVRYGHYYWGQGTQVTVSS | high polyreactivity
QVQLVESGGGLVQAGGSLRLSCSASGSIFGRKMGWYRQAPVKERELVAAITWSGGRTYYADSVKGRFTISRDNAKNTVYLLMNCLKPEDTAVYYCNAVRRYTGYAFKDDYWGQGNQVTVSS | high polyreactivity
QVQLVESGGGLVQAGGSLRLSCSASGSIFGVYTMGWFRQAPGKERELVAAITSAGSTYADSVKGRFTISRDNAKNTVYLQMNSLKPEDTAVYYCNAESVLLSVLVELREPHEYWGQGTQVTVSS | low polyreactivity
QVQLVESGGGLVQAGGSLRLSCSASGSIFNYYTMGWDRQAPGKERELVAVITWSDDSTYYADSVKGRFTISRDNAKNTVYLQMNSLKPEDTAVYYCNARSWGWYRIAYGYWGQGTQVTVSS | low polyreactivity
QVQLVESGGGLVQAGGSLRLSCSASGSIFPKNAMGWYRQAPGKERELVARISGSGGSTYYADSVKGRFTISRDNAKNTVYLQMNSLKPEDTAVYYCAKDQSKIYSSWSGYYYWGQGTQVTVSS | low polyreactivity
QVQLVESGGGLVQAGGSLRLSCSASGSNFGYYAMGWYRQAPGKERELVASITWTGGSTYYADSVKGRFTISRDNAKNTVYLQMNSLKPEDTAVYYCAAQLEPSYWFWTGYGYWGQGTQVTVSS | high polyreactivity
QVQLVESGGGLVQAGGSLRLSCSASGSTFGYNAMGWYRQAPGKERELVAAILFSGGSTFYADSVKGRFTISRDNAKNTVYLQMNSLKQEDTAVYYCADYAGYYAYDSWGQGTQVTVSS | low polyreactivity
QVQLVESGGGLVQAGGSLRLSCSASGSTFTYYAIGWYRTAPGEERELGAAISWRGTSTYYADSVKGRFTISRDNAKNSVYLQMNSLKTEETAVYSCAGRGLWPYDYWGQGTQVTVSS | low polyreactivity
QVQLVESGGGLVQAGGSLRLSCSASGTISGLYAMGWYRQATGKERELVARIRWRGDSTYYADSVKGRFTISRDNAKNTVYLQMNSLNPEDTAVFYCAASAYSGKVNKYNYWGQGTQVTVSS | high polyreactivity
QVQLVESGGGLVQAGGSLRLSCSASGYTFSSYGMGWYRQAPGKERELVAAITGSTGTTYYADSVQGRFTISRDNAKNTVYLQMISLKPEDTAVYYCAAEYQSYPWYDYWGQGTQVTVSS | high polyreactivity
QVQLVESGGGLVQAGGSLRLSCSASRSTFPGYAMGWYRQAPGKERELVAAISVSGDRTYYADSVKRRFTISRDNPQNTVYLQMNRLKPEDTAVYYCAVRTRYRGSGVWVGNYSWGQGTQVTVSS | high polyreactivity
QVQLVESGGGLVQAGGSLRLSCSAYGFIFTGYAMGWYRQAPGKEREFVAAISYSGGSTYADSVKGRFTISRDNAKNSVYLQMNSLKPEDTAVYYCNARQGLWRYTAENDYWGQGTQVTVSS | low polyreactivity
QVQLVESGGGLVQAGGSLRLSCTASGITSGSYAMGWYRQAPGKERELVAAISNSGSTYYADSVKGRFTISRDNAKNSVYLQMNSLKPEDTAVYYCNADDWWGGYDYWGQGTQVTVSS | low polyreactivity
QVQLVESGGGLVQAGGSLRLSCVASGFIFRRNAMGWYRQAPGKERELVATISSGGNTYYADSVKGRFTISRDNAKNTVYLQMNSLKPVDTAVYYCIASDGLPSKLNVYVEFDYWGQCTQVTVSS | low polyreactivity
QVQLVESGGGLVQAGGSLRLSCVASGFTFIRYAMGWYRQAPGKERELVASITRGGSTYYADSVKGRFTISRDNAKYTVYLQMNSLKPEDTAVYYCATTSYYGYDYWGQGTQVTVSS | high polyreactivity
QVQLVESGGGLVQAGGSLRLSCVASGRIFARNAMGWYRQAPGKERELVAAITWSVGSTYYADSVKGRFTISRDNAKNTVYLQMISLKPEDTAVYYCAERYWYSRYWYDYWGQGTQVTVSS | high polyreactivity
QVQLVESGGGLVQAGGSLRLSCVASGRTFSRYAMGWYRQAPGKERELVAAISLRCGRTKYADSVKGRFTISRDNAKNTVYLQMNSLKPEDTAVYYCAADIYYGYPWRYHAGYYEGFDYWGQGTQVTVSS | high polyreactivity
QVQLVESGGGLVQAGGSLRLSFAASGGTFYTYVMGWYRQAPGKERELVAAISGSGGSTYYADSVKGRFTISRDNAKNTVYLQMNSLKPEDTAVYYCAAEGFVTWYRQGQVYYWGQGTQVTVSS | high polyreactivity

Sequence | polyreactivity (PSR sort gate)
QVQLVESGGGLVQAGGSLRLSFAASGIIFDINAMGWYRQAPGKERELVAAITTSVDSTYYADSVKGRFTISRDNAKNTVYLQMNSLKPEDTAVYYCAAGPGDSGDDYWGQGTQVTVSS | low polyreactivity
QVQLVESGGGLVQAGGSLRLSFAASGIIFRYSAMGWYRQEPGKERELVAAISRSGARTYYADSVKGRFTISRDNAKNTVYLQMNSLKPEDTAVYYCATDPTSGRFYYWGQGTQVTVSS | high polyreactivity
QVQLVESGGGLVQAGGSLRLSFAASGLIIFSYAMGWYRHAPGKEREIVASIRSSGGSTNYADSVKGRFTISRDNAKNTVYLQMYSLKPEDTAVYYCATRSKTSGRSYIPFNYWGQGTQVTVSS | high polyreactivity
QVQLVESGGGLVQAGGSLRLSFAASGLTFYTNAMGWYRQAPGKETELVATITSGGRTSYADSVKGRFTISRDNAKNTVYLEMNRLKPEDTAVYYCADTTGWYGARYGYWGQGTQVTVSS | high polyreactivity
QVQLVESGGGLVQAGGSLRLSFAASGRTFNTYTMGWYRQAPGKERELVAAITGTGGSTFYADSVKGRFTISRDNAKNTVYLQMNSLKPEDTAVYYCNADLEVTIGVYTDGFDSDYWGQGTQVTVSS | low polyreactivity
QVQLVESGGGLVQAGGSLRLSFAASGSIFGFNAMGWYRPAPGKERELVAAISSGGITNYADSVKGRFTISRDNAKNTVYLQMNSLKAEDTAVYYCAARAVSEDYYEFDYWGQGTQVTVSS | low polyreactivity
QVQLVESGGGLVQAGGSLRLSFAASGSILYIYAMGWYRQAPGKERELVASISRSGGRTYDADSVNGRFTISRDNAKNTVYLQMNSLKPEDTAVYYCDAVTGGGSKMDYWGQGTQVTVSS | high polyreactivity
QVQLVESGGGLVQAGGSLRLSFAASGSTFDNYAMGWYRQAPGKERELVAAIRRGGSTYYADSVKGRFTISRDNAKNTVYLQMNSLKPEDTAVYYCNAPITRFEGYFYWGQGTQVTVSS | high polyreactivity
QVQLVESGGGLVQAGGSLRLSFAASGSTFTYNDMGWYRQAPGKERELVARITFSSGRTYYADSVKGRFTISRDNAKNTVYLQMNSLKPEDTAVYYCARQWYWRPGYYIGQGYEYWGQGTQVTVSS | low polyreactivity
QVQLVESGGGLVQAGGSLRLSFPASGFTFFGYAMGWYRQAPGKERELVAAISTIDGDTYYADSVKGRFTISRDNAKNTVYLQMNSLKPEDTAVYYCAADDYIDGDDYWGQGTQVTVSS | low polyreactivity
QVQLVESGGGLVQAGGSLRLSGAASGFIFIHYAMGWYRQAPGKERELVAAIRASGTSTYYADSVKGRFTISRDNAKNTVYLQMNSLKPEDTAVYYCAAQGYLRLRTHFNYWGQGTQVTLSS | low polyreactivity
QVQLVESGGGLVQAGGSLRLSGAASGLIFWGYTMGWYRQAPGKERVLVAAISRRGGRTYYADSVKGRFTISRDNAKNTVYLQMHSLKPEDTAVDYCNADITSSGPKSDYWGQGTQVTVSS | high polyreactivity
QVQLVESGGGLVQAGGSLRLSGAASGRTLVPYAMGWYRQAPGKERELVAAISSGGSTNYADSVKGRFRISRDNAKNTVYLQMNSLKPEDTAVYYCAYCGQGTQVTVSS | low polyreactivity
QVQLVESGGGLVQAGGSLRLSGAASGSIFNRNAMGWYRQAPGKESELVARISWTAGSTYYADSEKARFTISRDYAKNTVYLQMNSLKPEDTAVYYCNDVKGYYDLYDKFDYWGQGTQVTVSS | low polyreactivity
QVQLVESGGGLVQAGGSLRLSGAASGSIFYSNARGWYRQAPGKERELVAAITVGGGRTYYADSVKGRFTISRDNAKNTVYLQMNSLKPEDTAVYYCAADSHASTYDYWGQGTQVTVSS | low polyreactivity
QVQLVESGGGLVQAGGSLRLSGAASGSTCYFNAQGWFRPAPGKERELVAAITYSGGSTYYADSVKGRFTISRDNAKNTVYLQLNSLKPEDTAVYYCAAQWRRHSTRSRYYYWGQGTQVTVSS | high polyreactivity
QVQLVESGGGLVQAGGSLRLSLAASGLSLRNYAMGWYRQAPGKERELVADITTGGGRTYYADSVKGRFTISRDNAKNTVYLQMNSLKPEDTAVYYCAAPTHLHGHGNQNEFYYWGQGTQVTVSS | low polyreactivity
QVQLVESGGGLVQAGGSLRLSRAASGFIFSGNAMGWYRKAPGKERELVAVITTSGGSTYYADSVKGRFTISRDNAKNTVYLQMISMKPEDTAVYYCNKPGHRSGPPYDYWGQGTQVSVSS | high polyreactivity
QVQLVESGGGLVQAGGSLRLSRAASGGTFFVYMGWYRQAPGKERELVADISGSGGGTYYADSVKGRFTISRDNAKNTVYLQMNSLKPEDTAVYYCATDVPTGIIRMYWGQGTQVTVSS | low polyreactivity
QVQLVESGGGLVQAGGSLRLSSAANGMIYVSYAMGWYRQAPGKERELVATITRSGGSTYYADSVKGRFTISRDNAKNTVYLQMNSLKPEDTAVYYCARYWRTSGVRMDYWGQGTQVTVSS | high polyreactivity
QVQLVESGGGLVQAGGSLRLSSAASARIFGYYVMGWYRQAPGKERELVARIRSGGNTYYADSVKGRFTISRDNAKNTVYLQMNSLKPEDTAVYSCNADPRTGWYIYDYWGQGTQVTVSS | high polyreactivity
